How the values were obtained:
[1] = target: the molecule itself; assay: SEC; gel filtration of co-expressed PapDHis/PapA complexes immediately after purification; Superdex75 120 ml, 20 mM TrisHCl pH 7.5, 20 mM NaCl
[2] = target: the molecule itself; assay: negative-stain electron microscopy; PapD/PapA samples frozen and thawed five times at 150 μg/ml in 10–20 mM TrisHCl pH 7.6, 20–50 mM NaCl; used the same day or kept at 4 °C up to 40 d; 1% uranyl acetate

| Protein | binding result [1] | binding result [2] |
| --- | --- | --- |
| PapA Ntd1 (residues 2 to 8 deleted) (natural protein, also called Ntd1 (Δ2–8); source: E. coli C600, co-expressed with PapDHis) AGKVTFNGTVVDAPCSISQKSADQSIDFGQLSKSFLEAGGVSKPMDLDIELVNCDITAFKGGNGAKKGTVKLAFTGPIVNGHSDELDTNGGTGTAIVVQGAGKNVVFDGSEGDANTLKDGENVLHYTAVVKKSSAVGAAVTEGAFSAVANFNLTYQ | binds |  |
| PapA Ntd1 G15N T101L (residues 2 to 8 deleted, G15N, T101L) (natural protein, Two copies stand in the PapD/(PapA)2 complex: one donor-strand complemented by PapD (dscPapA), one donor-strand exchanged with the Nte of the first (dsePapA); also called dscPapA; dsePapA; source: E. coli C600, co-expressed with PapDHis) AGKVTFNNTVVDAPCSISQKSADQSIDFGQLSKSFLEAGGVSKPMDLDIELVNCDITAFKGGNGAKKGTVKLAFTGPIVNGHSDELDTNGGTGLAIVVQGAGKNVVFDGSEGDANTLKDGENVLHYTAVVKKSSAVGAAVTEGAFSAVANFNLTYQ | binds |  |
| PapA G15N (natural protein, source: E. coli C600, co-expressed with PapDHis) APTIPQGQGKVTFNNTVVDAPCSISQKSADQSIDFGQLSKSFLEAGGVSKPMDLDIELVNCDITAFKGGNGAKKGTVKLAFTGPIVNGHSDELDTNGGTGTAIVVQGAGKNVVFDGSEGDANTLKDGENVLHYTAVVKKSSAVGAAVTEGAFSAVANFNLTYQ | binds |  |
| PapA I4G (natural protein, source: E. coli C600, co-expressed with PapDHis) APTGPQGQGKVTFNGTVVDAPCSISQKSADQSIDFGQLSKSFLEAGGVSKPMDLDIELVNCDITAFKGGNGAKKGTVKLAFTGPIVNGHSDELDTNGGTGTAIVVQGAGKNVVFDGSEGDANTLKDGENVLHYTAVVKKSSAVGAAVTEGAFSAVANFNLTYQ |  | binds |
| PapA I4G G15N (natural protein, source: E. coli C600, co-expressed with PapDHis) APTGPQGQGKVTFNNTVVDAPCSISQKSADQSIDFGQLSKSFLEAGGVSKPMDLDIELVNCDITAFKGGNGAKKGTVKLAFTGPIVNGHSDELDTNGGTGTAIVVQGAGKNVVFDGSEGDANTLKDGENVLHYTAVVKKSSAVGAAVTEGAFSAVANFNLTYQ | binds |  |
